The text below walks through data of paper PMC10167327, “Inositol pyrophosphates activate the vacuolar transport chaperone complex in yeast by disrupting a homotypic SPX domain interaction” (Nature Communications, 2023).

B1: Vtc4* (Vtc4(1–487), SPX and TTM domains of Vtc4 without the transmembrane domain) (domain or fragment)
chain: not shown
modifications: RED-tris-NTA 2nd generation dye on the His tag (MST); RED-NHS 2nd generation dye (MST with TTM2)
notes: Vtc4, catalytic subunit of the vacuolar transporter chaperone (VTC) complex, yeast, residues 1-487 (SPX and TTM domains, no transmembrane domain); pET27b(+) construct from GenScript with a C-terminal TEV site and His10 tag; The dye is absent in NMR and cross-linking; also called Vtc4ΔTM; source: E. coli Lemo21(DE3) BL21, purified (HisTrap, Superdex 200); not shown: His10, C-terminal, kept

Experiment in all cases: MST; His-tagged Vtc4* or TTM4 labelled with RED-tris-NTA 2nd generation dye, titrated with Vtc2* or SPX2 proteins; MST buffer 15 mM HEPES pH 7.0, 50 mM NaCl, 2 mM DTT; Monolith NT.115, 100 % laser power
Common to all, as to conditions: both partners purified

Test [1] concerns the target T1, Vtc2* (Vtc2(1–553), SPX and TTM domains of Vtc2 without the transmembrane domain) (S. cerevisiae, UniProt P43585 1-553).
T1 construct: Vtc2, subunit of the vacuolar transporter chaperone (VTC) complex, S. cerevisiae, residues 1-553 (SPX and TTM domains, no transmembrane domain); pET27b(+) construct from GenScript with a C-terminal TEV site and His10 tag; source: E. coli Lemo21(DE3) BL21, purified (HisTrap, Superdex 200)
T1 sequence (looked up): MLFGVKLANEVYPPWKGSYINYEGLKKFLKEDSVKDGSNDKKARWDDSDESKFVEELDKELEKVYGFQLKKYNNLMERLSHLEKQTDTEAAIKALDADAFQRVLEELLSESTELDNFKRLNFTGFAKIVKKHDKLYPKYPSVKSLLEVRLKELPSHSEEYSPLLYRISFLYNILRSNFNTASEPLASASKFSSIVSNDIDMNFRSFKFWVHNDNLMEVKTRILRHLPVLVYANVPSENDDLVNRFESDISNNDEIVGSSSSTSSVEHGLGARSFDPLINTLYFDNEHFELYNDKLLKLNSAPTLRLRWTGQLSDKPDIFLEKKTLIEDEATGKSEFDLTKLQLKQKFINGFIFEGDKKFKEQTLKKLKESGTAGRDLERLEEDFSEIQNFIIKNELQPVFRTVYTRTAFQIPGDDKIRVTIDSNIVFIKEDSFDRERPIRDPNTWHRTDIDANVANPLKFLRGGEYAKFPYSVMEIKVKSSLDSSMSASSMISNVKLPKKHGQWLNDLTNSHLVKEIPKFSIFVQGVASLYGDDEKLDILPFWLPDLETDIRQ

Test [2] addresses B1.
The target in test [3] is T2, TTM4 (TTM domain of Vtc4, Vtc4(192–487)) (S. cerevisiae, UniProt P47075 192-487, RED-tris-NTA 2nd generation dye on the His tag).
T2 construct: Vtc4, yeast, residues 192-487 (triphosphate tunnel metalloenzyme domain); pET27b(+) construct from GenScript with a C-terminal TEV site and His10 tag; source: E. coli Lemo21(DE3) BL21, purified (HisTrap, Superdex 200); not shown: His10, C-terminal, kept
T2 sequence (P47075 192-487): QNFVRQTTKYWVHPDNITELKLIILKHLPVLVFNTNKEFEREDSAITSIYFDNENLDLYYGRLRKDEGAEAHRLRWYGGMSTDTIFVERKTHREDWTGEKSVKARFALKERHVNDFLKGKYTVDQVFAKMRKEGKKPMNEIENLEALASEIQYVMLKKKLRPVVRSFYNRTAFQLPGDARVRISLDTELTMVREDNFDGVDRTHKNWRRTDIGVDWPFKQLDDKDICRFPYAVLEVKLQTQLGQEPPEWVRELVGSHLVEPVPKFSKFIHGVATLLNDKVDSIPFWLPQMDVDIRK

The molecule B1 displayed a Kd in test [1] of 13.8 µM.

B2: SPX2∆α7 (Vtc2(1–182)) (domain or fragment, S. cerevisiae, UniProt P43585 1-182, looked up)
chain: MLFGVKLANEVYPPWKGSYINYEGLKKFLKEDSVKDGSNDKKARWDDSDESKFVEELDKELEKVYGFQLKKYNNLMERLSHLEKQTDTEAAIKALDADAFQRVLEELLSESTELDNFKRLNFTGFAKIVKKHDKLYPKYPSVKSLLEVRLKELPSHSEEYSPLLYRISFLYNILRSNFNTAS
notes: Vtc2, S. cerevisiae, residues 1-182 (SPX domain without helix α7 and the C-terminal linker); source: E. coli Lemo21(DE3) BL21, purified (as SPX2, cation exchange in 20 mM MES pH 6.0); not shown: His5, C-terminal, cleaved
B2: in test [2], the binding result was “binds”.

B3: SPX2 S187A (domain or fragment, S. cerevisiae, UniProt P43585 1-201, looked up)
chain: MLFGVKLANEVYPPWKGSYINYEGLKKFLKEDSVKDGSNDKKARWDDSDESKFVEELDKELEKVYGFQLKKYNNLMERLSHLEKQTDTEAAIKALDADAFQRVLEELLSESTELDNFKRLNFTGFAKIVKKHDKLYPKYPSVKSLLEVRLKELPSHSEEYSPLLYRISFLYNILRSNFNTASEPLAAASKFSSIVSNDIDM
notes: Vtc2, S. cerevisiae, residues 1-201 (SPX2) with a point mutation in helix α7; also called serine 187 to alanine; source: E. coli Lemo21(DE3) BL21, purified; not shown: His5, C-terminal, cleaved
Regarding B3, the binding result in test [2] is recorded as “binds”.

B4: SPX2 (SPX domain of Vtc2, Vtc2(1–201)) (domain or fragment, S. cerevisiae, UniProt P43585 1-201, looked up)
chain: MLFGVKLANEVYPPWKGSYINYEGLKKFLKEDSVKDGSNDKKARWDDSDESKFVEELDKELEKVYGFQLKKYNNLMERLSHLEKQTDTEAAIKALDADAFQRVLEELLSESTELDNFKRLNFTGFAKIVKKHDKLYPKYPSVKSLLEVRLKELPSHSEEYSPLLYRISFLYNILRSNFNTASEPLASASKFSSIVSNDIDM
notes: Vtc2, S. cerevisiae, residues 1-201 (SPX domain with helix α7 and the C-terminal linker); Residues of the TEV site may remain at the C-terminus after cleavage; also called Vtc2-SPX domain; source: E. coli Lemo21(DE3) BL21, purified (HisTrap, TEV, reversed HisTrap, cation exchange, Superdex 75); not shown: His5, C-terminal, cleaved
For the molecule B4, the “fold reduction of affinity against Vtc4*” value in test [3] is roughly 20 fold.

B5: SPX2 N121A (domain or fragment, S. cerevisiae, UniProt P43585 1-201, looked up)
chain: MLFGVKLANEVYPPWKGSYINYEGLKKFLKEDSVKDGSNDKKARWDDSDESKFVEELDKELEKVYGFQLKKYNNLMERLSHLEKQTDTEAAIKALDADAFQRVLEELLSESTELDNFKRLAFTGFAKIVKKHDKLYPKYPSVKSLLEVRLKELPSHSEEYSPLLYRISFLYNILRSNFNTASEPLASASKFSSIVSNDIDM
notes: Vtc2, S. cerevisiae, residues 1-201 (SPX2) with a pseudo-active point mutation; source: E. coli Lemo21(DE3) BL21, purified; not shown: His5, C-terminal, cleaved
As to B5, the binding result in test [2] is “binds”.

B6: SPX2 K127A (domain or fragment, S. cerevisiae, UniProt P43585 1-201, looked up)
chain: MLFGVKLANEVYPPWKGSYINYEGLKKFLKEDSVKDGSNDKKARWDDSDESKFVEELDKELEKVYGFQLKKYNNLMERLSHLEKQTDTEAAIKALDADAFQRVLEELLSESTELDNFKRLNFTGFAAIVKKHDKLYPKYPSVKSLLEVRLKELPSHSEEYSPLLYRISFLYNILRSNFNTASEPLASASKFSSIVSNDIDM
notes: as for B5
With B6, the binding result in test [2] is “binds”.

B7: SPX2 Y19F (domain or fragment, S. cerevisiae, UniProt P43585 1-201, looked up)
chain: MLFGVKLANEVYPPWKGSFINYEGLKKFLKEDSVKDGSNDKKARWDDSDESKFVEELDKELEKVYGFQLKKYNNLMERLSHLEKQTDTEAAIKALDADAFQRVLEELLSESTELDNFKRLNFTGFAKIVKKHDKLYPKYPSVKSLLEVRLKELPSHSEEYSPLLYRISFLYNILRSNFNTASEPLASASKFSSIVSNDIDM
notes: as for B5
On to B7, for which, in test [2], the binding result is “binds”.

B8: SPX2 S189A (domain or fragment, S. cerevisiae, UniProt P43585 1-201, looked up)
chain: MLFGVKLANEVYPPWKGSYINYEGLKKFLKEDSVKDGSNDKKARWDDSDESKFVEELDKELEKVYGFQLKKYNNLMERLSHLEKQTDTEAAIKALDADAFQRVLEELLSESTELDNFKRLNFTGFAKIVKKHDKLYPKYPSVKSLLEVRLKELPSHSEEYSPLLYRISFLYNILRSNFNTASEPLASAAKFSSIVSNDIDM
notes: Vtc2, S. cerevisiae, residues 1-201 (SPX2) with a point mutation in helix α7; also called serine 189 to alanine; source: E. coli Lemo21(DE3) BL21, purified; not shown: His5, C-terminal, cleaved
For B8, the binding result in test [2] is “binds”.

Usually Kd stands for the concentration at which binding is half-saturated. Read a high Kd as lower affinity.
